The record followed here is PMC9418484 (The Journal of Experimental Medicine, 2022).

For assay [1], the target named is T1, SARS-CoV-2 Wuhan-Hu-1 receptor-binding domain (RBD), S protein residues 319-539 (SARS-CoV-2 Wuhan-Hu-1, UniProt P0DTC2).
The target of assay [2] is T1, SARS-CoV-2 Wuhan-Hu-1 receptor-binding …. Put plainly: BLI. To be noted: both partners purified.

Where two headings read alike, the source gives them in different places.

B1: AZ229 (antibody, V domains shown)
VH: EVQLVESGGGLVQPGGSLRLSCAASGFTFSSDDMHWVRQATGKGLEWVSAIGTSGDTYYSESVKGRFTISRDNAKSSLYLQMNSLRAGDTAVYYCARGRVYDGPTSDRHYYYYVMDLWGHGTTVAVSS
VL: DIQMTQSPSSLSASVGDRVTITCRASQSINKYLNWYQQKPGKAPKLLIYAASSLQGGVPSRFSGSGSGTDFTLTITTLQPEDFATYYCQQSYSAPPWTFAQGTKVEIK
Turning to B1, in assay [1], the binding result is listed as “binds”.

B2: C105 (antibody, V domains shown)
VH: QVQLVESGGGLIQPGGSLRLSCAASGFTVSSNYMSWVRQAPGKGLEWVSVIYSGGSTYYADSVKGRFTISRDNSKNTLYLQMNSLRAEDTAVYYCARGEGWELPYDYWGQGTLVTVSS
VL: QSALTQPPSASGSPGQSVTISCTGTSSDVGGYKYVSWYQQHPGKAPKLMIYEVSKRPSGVPDRFSGSKSGNTASLTVSGLQAEDEADYYCSSYEGSNNFVVFGGGTKLTVL
Consider B2, for which, in assay [2], the binding result is recorded as “binds”.

B3: AZ090 IgG (antibody, V domains shown)
VH: QVQLVQSGPEVKKPGTSVKVSCKASQFTFSISAVQWVRQARGQRLEWMGWIVVGSGNTDYAQRFQERVTISRDMSAGTVYMELRSLRSEDTAVYYCAAPYCNKTNCRDGFDMWGQGTMVTVSS
VL: EIVLTQSPGTLSLSPGERATLSCRASQSVSSSYLAWYQQKPGQAPRLLIYGASRRATGIPDRFSGSASGTDFILTISRLEPEDFAVYYCQQYRNSPWTFGQGTKVEIK
Turning to B3, the binding result in assay [2] is given as “binds”.
